This data set concerns the molecule itself. The experiment in a line: crystal structure; SAD phasing, 1.5 Å; hanging-drop vapor diffusion at 291 K, 10 mg/ml Se-Met protein, well solution 1% ethylene glycol, 1.8 M ammonium sulfate, 100 mM MES pH 6.0; space group P212121; contact between symmetry-related molecules in the crystal.

B1: human protein N-terminal glutamine amidohydrolase isoform 1 (hNtaq1) (enzyme)
chain: not shown
modifications: Se-Met labeled (selenomethionine in place of methionine)
notes: human N-terminal glutamine amidohydrolase isoform 1, encoded by the C8orf32 gene; 205 amino acids (Ser1 to Cys205), initial Met replaced by Ser after TEV cleavage; 202 residues modeled, Lys203, Asn204 and Cys205 disordered; Cloned by Gateway into pVP16 with N-terminal (His)6-MBP and a TEV site; also called human Ntaq1; not shown: His6, N-terminal, cleaved; MBP, N-terminal, cleaved
As for B1, the binding result is listed as “binds”.

These data come from PMC4214742, “Crystal Structure of Human Protein N-Terminal Glutamine Amidohydrolase, an Initial Component of the N-End Rule Pathway” (PLoS ONE, 2014).
